Ki and Kd data for 7 molecules are collected here from article PMC9706563 (2022).

What all share (assay): FP
Experiment [1] deals with T1, PRMT5-MEP50 complex (full-length, purified) (human | , UniProt O14744 1-637; Q9BQA1 1-342).
Experiment [2] addresses T1, PRMT5-MEP50 complex (full-length, …). This is another data set of the same source.
The target is the same in experiment [3]. This is another data set of the same source.

Read-outs that look alike come from different tables or passages of the source. Bridge positions count the residues as written; N and C are the ends. Square brackets hold non-standard residues; d marks the D form. Ends that are not written are not given here. * marks the point of attachment. FITC = O=C1OC2(c3ccc(O)cc3Oc3cc(O)ccc32)c2ccc(NC(=S)*)cc21; Phe(4-NO2) = N[C@@H](Cc1ccc([N+](=O)[O-])cc1)C(=O)O; Gla = N[C@@H](CC(C(=O)O)C(=O)O)C(=O)O; Dap = NC[C@H](N)C(=O)O; AEEA = NCCOCCOCC(=O)O A value given as a limit tells only on which side of the number the result lay.

T1 sequence (O14744 whole entry, chain 1 of 2): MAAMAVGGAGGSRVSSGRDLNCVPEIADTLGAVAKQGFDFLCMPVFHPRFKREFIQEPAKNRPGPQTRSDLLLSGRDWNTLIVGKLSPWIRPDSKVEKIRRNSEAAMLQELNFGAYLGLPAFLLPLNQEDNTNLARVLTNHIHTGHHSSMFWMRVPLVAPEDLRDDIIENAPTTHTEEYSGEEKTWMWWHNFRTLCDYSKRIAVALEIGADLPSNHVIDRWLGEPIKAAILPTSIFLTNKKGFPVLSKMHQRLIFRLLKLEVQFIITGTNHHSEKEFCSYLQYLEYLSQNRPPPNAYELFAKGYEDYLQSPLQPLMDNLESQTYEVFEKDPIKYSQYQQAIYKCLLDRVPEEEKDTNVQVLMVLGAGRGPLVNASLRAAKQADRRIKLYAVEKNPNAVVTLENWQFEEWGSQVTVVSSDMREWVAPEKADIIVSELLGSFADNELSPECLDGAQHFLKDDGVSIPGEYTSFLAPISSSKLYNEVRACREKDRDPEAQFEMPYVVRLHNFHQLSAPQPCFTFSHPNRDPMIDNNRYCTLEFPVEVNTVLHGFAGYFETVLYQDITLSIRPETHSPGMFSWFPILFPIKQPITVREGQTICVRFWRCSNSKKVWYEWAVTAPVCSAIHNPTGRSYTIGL
T1 sequence (Q9BQA1 whole entry, chain 2 of 2): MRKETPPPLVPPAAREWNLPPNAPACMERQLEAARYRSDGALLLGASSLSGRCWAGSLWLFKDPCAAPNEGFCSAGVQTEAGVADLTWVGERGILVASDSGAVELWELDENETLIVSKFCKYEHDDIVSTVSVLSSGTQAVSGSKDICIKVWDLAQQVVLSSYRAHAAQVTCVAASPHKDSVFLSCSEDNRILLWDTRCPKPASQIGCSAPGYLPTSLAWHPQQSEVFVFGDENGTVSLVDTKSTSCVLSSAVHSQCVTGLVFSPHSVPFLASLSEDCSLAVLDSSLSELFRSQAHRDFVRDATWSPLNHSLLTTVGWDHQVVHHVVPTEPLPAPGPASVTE

B1: peptide 4 (native RioK1 PBM sequence, unlabeled reference) (peptide)
chain: SRVVPGQFDDADSSD
modifications: unlabeled; taken as the same span as the printed RioK1 tracer sequence (7BOC entity 2); end groups are in the figure/SI
On to B1, for which, in experiment [1], the affinity, expressed as Ki, was 1800 nM. {FITC-AEEA}-SRVVP[Dap]QFDDADSSD-NH2 (lactam 6-9; not fully specified) [5]: the Kd (usually the free concentration of one partner at which half of the binding sites on the other are occupied at equilibrium, for simple one-to-one binding) in experiment [2] is greater than 2000 nM. VPGQFDDA[Gla] (also: FITC as in peptide 29) [linear peptide 40 (29 with Asp replaced by Gla)]: binding in experiment [3] was characterised by a dissociation constant (Kd) of 245 nM. SRVVPGQF[dA]DADSSD [peptide 2 (RioK1 PBM with D-Ala)]: the Ki (in general, a dissociation constant, usually derived from enzyme kinetics or from competition with a known ligand) in experiment [1] worked out at 4500 nM. Same read-out and setting: in the case of SRVVP[dA]QF[dA]DADSSD [peptide 3 (RioK1 PBM with D-Ala at 14 and 17)] it was 65000 nM.

As to VPGQ[Phe(4-NO2)]DDAD (also: FITC as in peptide 29) [linear peptide 41 (29 with Phe replaced by Phe(4-NO2))], in experiment [3], the Kd was found to be 232 nM. SRVVP[dA]QFDDADSSD [peptide 1 (RioK1 PBM with D-Ala)] came in with a Ki in experiment [1] of 5100 nM.
